The test concerns the target HLA-A*02:01 (Homo sapiens, UniProt P04439, D140Y/D185E/D98H/E176V/E277Q/G131W/G231S/I119V/I121R/I166T/I218V/L300P/L318F/N151K/N90K/P208A/P217A/Q86G/Q94H/R138H/R169H/T345S). As to the kind of experiment: MHC binding assay (UV-ligand exchange, anti-β2m ELISA, peptide exchange yield). The note with it: binding to HLA-A*02:01. The text has this:
Candidate peptides for T cell based therapies according to the present invention were further tested for their MHC binding capacity (affinity). The individual peptide-MHC complexes were produced by UV-ligand exchange, where a UV-sensitive peptide is cleaved upon UV-irradiation, and exchanged with the peptide of interest as analyzed. Only peptide candidates that can effectively bind and stabilize the peptide-receptive MHC molecules prevent dissociation of the MHC complexes. To determine the yield of the exchange reaction, an ELISA was performed based on the detection of the light chain (β2m) of stabilized MHC complexes. The assay was performed as generally described in Rodenko et al. (Rodenko et al., 2006).
96 well MAXISorp plates (NUNC) were coated over night with 2 ug/ml streptavidin in PBS at room temperature, washed 4× and blocked for 1h at 37° C. in 2% BSA containing blocking buffer. […] Peptide-MHC monomers of the UV-exchange reaction were diluted 100 fold in blocking buffer. Samples were incubated for 1 h at 37° C., washed four times, incubated with 2 ug/ml HRP conjugated anti-β2m for 1h at 37° C., washed again and detected with TMB solution that is stopped with […]. Absorption was measured at 450 nm. Candidate peptides that show a high exchange yield (preferably higher than 50%, most preferred higher than 75%) are generally preferred for a generation and production of antibodies or fragments thereof, and/or T cell receptors or fragments thereof, as they show sufficient avidity to the MHC molecules and prevent dissociation of the MHC complexes.
In general terms: ELISA stands for enzyme-linked immunosorbent assay.

On to “67 (TLLAEALVTV; listed as Homo sapiens) [compound 67]”, for which the “Peptide exchange (MHC class I binding score, peptide exchange yield)” value (shortened to “Peptide exchange”) was ““+++” (>50 = +++)”.

As for “68 (SLMELPRGLFL; listed as Homo sapiens) [compound 68]”, the “Peptide exchange” value is given as ““++++” (>75% = ++++)”.

On to “69 (FQLDPSSGVLVTV; listed as Homo sapiens) [compound 69]”, for which the “Peptide exchange” value is ““+++” (>50 = +++)”.

As for “70 (GLLDYPVGV; listed as Homo sapiens) [compound 70]”, the “Peptide exchange” value is listed as ““+++” (>50 = +++)”. “71 (GILARIASV; listed as Homo sapiens) [compound 71]”: the “Peptide exchange” value is given as ““+++” (>50 = +++)”.

Regarding “72 (SLLELDGINL; listed as Homo sapiens) [compound 72]”, the “Peptide exchange” value was ““+++” (>50 = +++)”. As to “73 (NIFDLQIYV; listed as Homo sapiens) [compound 73]”, the “Peptide exchange” value is given as ““+++” (>50 = +++)”. Next, “74 (ALLDPEVLSIFV; listed as Homo sapiens) [compound 74]”: ““+++” (>50 = +++)”.

For the substance “75 (GLLEVMVNL; listed as Homo sapiens) [compound 75]”, the “Peptide exchange” value is ““+++” (>50 = +++)”.

Consider “76 (ILIDSIYKV; listed as Homo sapiens) [compound 76]”, for which the “Peptide exchange” value was ““+++” (>50 = +++)”. For “77 (ILVEADGAWVV; listed as Homo sapiens) [compound 77]”, the “Peptide exchange” value was ““++++” (>75% = ++++)”. Next, “78 (SLFSSLEPQIQPV; listed as Homo sapiens) [compound 78]”: ““+++” (>50 = +++)”; “80 (FLYDNLVESL; listed as Homo sapiens) [compound 80]”: ““++” (>20% = ++)”; “81 (FLFSQLQYL; listed as Homo sapiens) [compound 81]”: ““++” (>20% = ++)”. Turning to “82 (FLSSVTYNL; listed as Homo sapiens) [compound 82]”, the “Peptide exchange” value is ““+++” (>50 = +++)”. The result for “83 (ILAPTVMMI; listed as Homo sapiens) [compound 83]” reads ““+++” (>50 = +++)”. “84 (VTFGEKLLGV; listed as Homo sapiens) [compound 84]”: the “Peptide exchange” value was ““++” (>20% = ++)”. “85 (KMSELRVTL; listed as Homo sapiens) [compound 85]”: the “Peptide exchange” value is ““+++” (>50 = +++)”. Next, “86 (NLIGKIENV; listed as Homo sapiens) [compound 86]”: ““+++” (>50 = +++)”; “87 (ALPEAPAPLLPHIT; listed as Homo sapiens) [compound 87]”: ““++” (>20% = ++)”. The result for “88 (FLLVGDLMAV; listed as Homo sapiens) [compound 88]” reads ““+++” (>50 = +++)”.

As for “89 (YILPTETIYV; listed as Homo sapiens) [compound 89]”, the “Peptide exchange” value is ““++++” (>75% = ++++)”. As for “90 (TLLQIIETV; listed as Homo sapiens) [compound 90]”, the “Peptide exchange” value is reported as ““+++” (>50 = +++)”.

Take “91 (IMQDFPAEIFL; listed as Homo sapiens) [compound 91]”: the “Peptide exchange” value was ““++++” (>75% = ++++)”. For the substance “92 (YLIPFTGIVGL; listed as Homo sapiens) [compound 92]”, the “Peptide exchange” value is ““++” (>20% = ++)”. For “93 (LLQAIKLYL; listed as Homo sapiens) [compound 93]”, the “Peptide exchange” value was ““++” (>20% = ++)”. Next, “94 (YLIDIKTIAI; listed as Homo sapiens) [compound 94]”: ““++” (>20% = ++)”; “95 (SVIPQIQKV; listed as Homo sapiens) [compound 95]”: ““+++” (>50 = +++)”; “96 (YIFTDNPAAV; listed as Homo sapiens) [compound 96]”: ““+++” (>50 = +++)”.

Take “97 (SLINGSFLV; listed as Homo sapiens) [compound 97]”: the “Peptide exchange” value is given as ““+++” (>50 = +++)”. For the substance “98 (LIIDQADIYL; listed as Homo sapiens) [compound 98]”, the “Peptide exchange” value is on record as ““+++” (>50 = +++)”. Next, “99 (ALVSKGLATV; listed as Homo sapiens) [compound 99]”: ““++” (>20% = ++)”; “100 (YLLSTNAQL; listed as Homo sapiens) [compound 100]”: ““++++” (>75% = ++++)”; “101 (ILVGGGALATV; listed as Homo sapiens) [compound 101]”: ““+++” (>50 = +++)”. Take “102 (YLFESEGLVL; listed as Homo sapiens) [compound 102]”: the “Peptide exchange” value is reported as ““+++” (>50 = +++)”. The result for “103 (TLAEEVVAL; listed as Homo sapiens) [compound 103]” reads ““+++” (>50 = +++)”; that for “104 (STMEQNFLL; listed as Homo sapiens) [compound 104]”, ““++++” (>75% = ++++)”; that for “106 (LLYDAVHIVSV; listed as Homo sapiens) [compound 106]”, ““+++” (>50 = +++)”.

Regarding “107 (FLQPVDDTQHL; listed as Homo sapiens) [compound 107]”, the “Peptide exchange” value is given as ““+++” (>50 = +++)”. The result for “109 (IILSILEQA; listed as Homo sapiens) [compound 109]” reads ““++++” (>75% = ++++)”; that for “110 (FLSQVDFEL; listed as Homo sapiens) [compound 110]”, ““+++” (>50 = +++)”. With “111 (YVWGFYPAEV; listed as Homo sapiens) [compound 111]”, the “Peptide exchange” value is reported as ““+++” (>50 = +++)”. Next, “114 (SLVGEPILQNV; listed as Homo sapiens) [compound 114]”: ““++” (>20% = ++)”; “115 (AIAGAGILYGV; listed as Homo sapiens) [compound 115]”: ““++” (>20% = ++)”. Next, “116 (YHIDEEVGF; listed as Homo sapiens) [compound 116]”: ““+” (>10% = +)”.

For “117 (ILPDGEDFLAV; listed as Homo sapiens) [compound 117]”, the “Peptide exchange” value was ““+++” (>50 = +++)”.

As for “119 (FLYIGDIVSL; listed as Homo sapiens) [compound 119]”, the “Peptide exchange” value was ““++++” (>75% = ++++)”.

Turning to “120 (ALLGIPLTLV; listed as Homo sapiens) [compound 120]”, the “Peptide exchange” value was ““+++” (>50 = +++)”.

With “121 (GVVDPRAISVL; listed as Homo sapiens) [compound 121]”, the “Peptide exchange” value was ““++” (>20% = ++)”.

For “122 (FLLAEDDIYL; listed as Homo sapiens) [compound 122]”, the “Peptide exchange” value was ““+++” (>50 = +++)”. Next, “123 (NLWDLTDASVV; listed as Homo sapiens) [compound 123]”: ““+++” (>50 = +++)”; “124 (ALYETELADA; listed as Homo sapiens) [compound 124]”: ““++” (>20% = ++)”.

As for “125 (VQIHQVAQV; listed as Homo sapiens) [compound 125]”, the “Peptide exchange” value was ““+++” (>50 = +++)”. The result for “126 (VLAYFLPEA; listed as Homo sapiens) [compound 126]” reads ““++++” (>75% = ++++)”; that for “127 (KIGDEPPKV; listed as Homo sapiens) [compound 127]”, ““++” (>20% = ++)”. For the substance “128 (YLFDDPLSAV; listed as Homo sapiens) [compound 128]”, the “Peptide exchange” value is listed as ““++” (>20% = ++)”.

Consider “129 (GLLDGGVDILL; listed as Homo sapiens) [compound 129]”, for which the “Peptide exchange” value is listed as ““+++” (>50 = +++)”.

Source of the values: patent US10239925B2, “Peptides and combination of peptides for use in immunotherapy against ovarian cancer and other cancers” (IMMATICS BIOTECHNOLOGIES GMBH, priority 2015, dated 2019).
